Test results: patent US20020142392A1 (WA PHARM, published 2002)

Assays:
[1] = target: T1, human melanocyte stimulating hormone receptor (MSH receptor), polypeptide of SEQ ID NO:2 (human, UniProt Q01726 1-317); assay: competition with 125I-NDP-MSH on pE-11D transfected COS-7 cells; Cheng-Prusoff from IC50
T1 construct: also called 11D cDNA product; expressed MSH receptor
T1 sequence: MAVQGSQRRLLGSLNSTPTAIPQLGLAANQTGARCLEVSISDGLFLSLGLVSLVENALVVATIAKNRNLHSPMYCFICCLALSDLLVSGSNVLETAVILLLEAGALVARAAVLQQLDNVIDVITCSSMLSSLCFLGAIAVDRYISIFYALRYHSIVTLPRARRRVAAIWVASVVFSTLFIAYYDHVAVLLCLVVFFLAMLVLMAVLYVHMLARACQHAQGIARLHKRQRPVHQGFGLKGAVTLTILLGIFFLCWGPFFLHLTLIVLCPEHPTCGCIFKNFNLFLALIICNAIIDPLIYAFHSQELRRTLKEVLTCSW
Protocol: (§1) 20877, USA). Eighty percent confluent cultures were transfected with 1 μg of pE-11D plasmid DNA and 40 μg lipofectin (BRL, 8400 Helgerman Court, Gaithersburg, Md. 20877, USA) in serum free medium. Five hours after transfection, serum containing medium was replaced, and cells were cultivated for 20 hours. Cells were then scraped off, centrifuged, resuspended in serum containing medium, plated on 48 well plates, and allowed to grow for 24 hours. […] Radioactivity was counted and data analyzed by iterative, non-linear curve fitting programme suitable for radioligand binding analysis (see FIG. 6). […] The Kᵢ-values were then calculated from the IC-50 values estimated thus estimated by using the Cheng and Prusoff equation, as previously described (Cheng and Prusoff 1973).

[2] = target: T2, MC-2 receptor, polypeptide of SEQ ID NO:16 (human, UniProt P33032 1-325); assay: competition with 125I-NDP-MSH on pE-MC-2 transfected COS-7 cells; Cheng-Prusoff from IC50
T2 construct: Tested on COS-7 cells transfected with pE-MC-2; also called MSH receptor subtype; pE-MC-2 transfected COS-7 cells
T2 chain: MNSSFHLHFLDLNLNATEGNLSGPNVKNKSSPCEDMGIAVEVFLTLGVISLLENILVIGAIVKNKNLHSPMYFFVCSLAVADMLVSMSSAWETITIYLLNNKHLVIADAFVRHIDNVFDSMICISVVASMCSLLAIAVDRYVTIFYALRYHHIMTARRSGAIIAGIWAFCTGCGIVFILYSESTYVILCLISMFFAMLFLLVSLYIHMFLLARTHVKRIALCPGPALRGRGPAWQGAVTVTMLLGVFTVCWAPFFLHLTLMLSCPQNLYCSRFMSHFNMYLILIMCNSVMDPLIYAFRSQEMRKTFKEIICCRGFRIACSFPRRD
Protocol: as §1, with “Eighty” for “20877, USA). Eighty”, “pE-MC-2” for “pE-11D”, “9).” for “6).”

[3] = target: T2, MC-2 receptor, polypeptide of SEQ ID …; assay: competition with 125I-NDP-MSH on pE-MC-2 transfected COS-7 cells
Protocol: as §1, with “Eighty” for “20877, USA). Eighty”, “pE-MC-2” for “pE-11D”, “9).” for “6).”

B1: ACTH (1-39) (peptide, UniProt P01189 138-176, looked up)
peptide: SYSMEHFRWGKPVGKKRRPVKVYPNGAEDESAEAFPLEF
notes: domain: ACTH (1-39); Bought from Saxon Biochemicals GmbH; also called adrenocorticotropic hormone (1-39)
Ki [1]: 0.17 nM
Ki [2]: 929 nM

B2: β-MSH (peptide, UniProt P01189 217-234, looked up)
peptide: DEGPYRMEHFRWGSPPKD
notes: domain: β-MSH; Bought from Saxon Biochemicals GmbH; also called beta-melanocyte stimulating hormone
Ki [1]: 0.449 nM
Ki [2]: 1750 nM

B3: ACTH (4-10) (peptide, UniProt P01189 141-147, looked up)
peptide: MEHFRWG
notes: domain: ACTH (4-10); Bought from Saxon Biochemicals GmbH
Ki [1]: 22.4 nM

B4: β-endorphin (peptide, UniProt P01189 237-267, looked up)
peptide: YGGFMTSEKSQTPLVTLFKNAIIKNAYKKGE
notes: domain: β-endorphin; Bought from Saxon Biochemicals GmbH; also called non-melanotropic POMC peptide β-endorphin
binding result [3]: no binding
